Tests used:
Assay in all cases: cell-based or functional assay
[1] = molecular target: HIV-1 Env of pseudovirus Du172.17 (HIV-1)
[2] = molecular target: HIV-1 Env of pseudovirus X1254_c3 (HIV-1)
[3] = molecular target: HIV-1 Env of pseudovirus 231965.c01 (HIV-1)
[4] = molecular target: HIV-1 Env of pseudovirus 89-F1_2_25 (HIV-1)
[5] = molecular target: HIV-1 Env of pseudovirus Ce1086_B2 (HIV-1)
[6] = molecular target: HIV-1 Env of pseudovirus ZM53M.PB12 (HIV-1)
[7] = molecular target: HIV-1 Env of pseudovirus 7030102001E5(Rev-) (HIV-1)
[8] = molecular target: HIV-1 Env of pseudovirus 3301.v1.c24 (HIV-1)
[9] = molecular target: HIV-1 Env of pseudovirus 1054_07_TC4_1499 (HIV-1)
[10] = molecular target: HIV-1 Env of pseudovirus T251-18 (HIV-1)
[11] = molecular target: HIV-1 Env of pseudovirus SC05_8C11_2344 (HIV-1)
[12] = molecular target: HIV-1 Env of pseudovirus Ce1176_A3 (HIV-1)
[13] = molecular target: HIV-1 Env of pseudovirus T278-50 (HIV-1)
[14] = molecular target: HIV-1 Env of pseudovirus 1056_10_TA11_1826 (HIV-1)
[15] = molecular target: HIV-1 Env of pseudovirus 6545.v4.c1 (HIV-1)
[16] = molecular target: HIV-1 Env of pseudovirus 6811.v7.c18 (HIV-1)
[17] = molecular target: HIV-1 Env of pseudovirus 249M B10 (HIV-1)
[18] = molecular target: HIV-1 Env of pseudovirus Ce704809221_1B3 (HIV-1)
[19] = molecular target: HIV-1 Env of pseudovirus ZM135M.PL10a (HIV-1)
[20] = molecular target: HIV-1 Env of pseudovirus R2184.c04 (HIV-1)
[21] = molecular target: HIV-1 Env of pseudovirus AC10.0.29 (HIV-1)
[22] = molecular target: HIV-1 Env of pseudovirus ZM233M.PB6 (HIV-1)
[23] = molecular target: HIV-1 Env of pseudovirus T250-4 (HIV-1)
[24] = molecular target: HIV-1 Env of pseudovirus P0402_c2_11 (HIV-1)
[25] = molecular target: HIV-1 Env of pseudovirus BJOX028000.10.3 (HIV-1)
[26] = molecular target: HIV-1 Env of pseudovirus 1012_11_TC21_3257 (HIV-1)
[27] = molecular target: HIV-1 Env of pseudovirus 1006_11_C3_1601 (HIV-1)
[28] = molecular target: HIV-1 Env of pseudovirus CNE52 (HIV-1)
[29] = molecular target: HIV-1 Env of pseudovirus CNE21 (HIV-1)
[30] = molecular target: HIV-1 Env of pseudovirus TRJO4551.58 (HIV-1)
[31] = molecular target: HIV-1 Env of pseudovirus Ce703010054_2A2 (HIV-1)
[32] = molecular target: HIV-1 Env of pseudovirus CNE19 (HIV-1)
[33] = molecular target: HIV-1 Env of pseudovirus CNE20 (HIV-1)
[34] = molecular target: HIV-1 Env of pseudovirus Q842.d12 (HIV-1)
[35] = molecular target: HIV-1 Env of pseudovirus 6041.v3.c23 (HIV-1)
[36] = molecular target: HIV-1 Env of pseudovirus CNE17 (HIV-1)
[37] = molecular target: HIV-1 Env of pseudovirus 231966.c02 (HIV-1)

Substance: VRC07 (antibody)
- neutralization IC50 [1]: 0.796 µg/mL
- neutralization IC80 [1]: 3.66 µg/mL
- IC50, titer in TZM.bl cells [2]: 0.041 µg/mL
- IC80, titer in TZM.bl cells [2]: 0.2 µg/mL
- IC50, titer in TZM.bl cells [3]: 0.085 µg/mL
- IC80, titer in TZM.bl cells [3]: 0.263 µg/mL
- IC50, titer in TZM.bl cells [4]: > 50 µg/mL
- IC80, titer in TZM.bl cells [4]: > 50 µg/mL
- neutralization IC50 [5]: 0.128 µg/mL
- neutralization IC80 [5]: 0.84 µg/mL
- neutralization IC50 [6]: 0.275 µg/mL
- neutralization IC80 [6]: 1.29 µg/mL
- neutralization IC50 [7]: 0.205 µg/mL
- neutralization IC80 [7]: 0.911 µg/mL
- IC50, titer in TZM.bl cells [8]: 0.027 µg/mL
- IC80, titer in TZM.bl cells [8]: 0.073 µg/mL
- neutralization IC50 [9]: 0.239 µg/mL
- neutralization IC80 [9]: 1.46 µg/mL
- IC50, titer in TZM.bl cells [10]: 1.32 µg/mL
- IC80, titer in TZM.bl cells [10]: 6.49 µg/mL
- neutralization IC50 [11]: 0.133 µg/mL
- neutralization IC80 [11]: 0.401 µg/mL
- neutralization IC50 [12]: 0.52 µg/mL
- neutralization IC80 [12]: 2.6 µg/mL
- IC50, titer in TZM.bl cells [13]: > 50 µg/mL
- IC80, titer in TZM.bl cells [13]: > 50 µg/mL
- neutralization IC50 [14]: 0.239 µg/mL
- neutralization IC80 [14]: 1.11 µg/mL
- IC50, titer in TZM.bl cells [15]: > 50 µg/mL
- IC80, titer in TZM.bl cells [15]: > 50 µg/mL
- IC50, titer in TZM.bl cells [16]: 0.093 µg/mL
- IC80, titer in TZM.bl cells [16]: 0.435 µg/mL
- neutralization IC50 [17]: 0.052 µg/mL
- neutralization IC80 [17]: 0.204 µg/mL
- neutralization IC50 [18]: 0.273 µg/mL
- neutralization IC80 [18]: 1.14 µg/mL
- neutralization IC50 [19]: 0.104 µg/mL
- neutralization IC80 [19]: 0.383 µg/mL
- IC50, titer in TZM.bl cells [20]: 0.02 µg/mL
- IC80, titer in TZM.bl cells [20]: 0.104 µg/mL
- neutralization IC50 [21]: 0.282 µg/mL
- neutralization IC80 [21]: 0.986 µg/mL
- neutralization IC50 [22]: 0.152 µg/mL
- neutralization IC80 [22]: 0.625 µg/mL
- IC50, titer in TZM.bl cells [23]: > 50 µg/mL
- IC80, titer in TZM.bl cells [23]: > 50 µg/mL
- IC50, titer in TZM.bl cells [24]: 0.085 µg/mL
- IC80, titer in TZM.bl cells [24]: 0.422 µg/mL
- IC50, titer in TZM.bl cells [25]: 0.011 µg/mL
- IC80, titer in TZM.bl cells [25]: 0.069 µg/mL
- neutralization IC50 [26]: 0.014 µg/mL
- neutralization IC80 [26]: 0.045 µg/mL
- neutralization IC50 [27]: 0.015 µg/mL
- neutralization IC80 [27]: 0.046 µg/mL
- neutralization IC50 [28]: 0.042 µg/mL
- neutralization IC80 [28]: 0.142 µg/mL
- neutralization IC50 [29]: 0.05 µg/mL
- neutralization IC80 [29]: 0.222 µg/mL
- neutralization IC50 [30]: 0.032 µg/mL
- neutralization IC80 [30]: 0.125 µg/mL
- neutralization IC50 [31]: 0.19 µg/mL
- neutralization IC80 [31]: 0.912 µg/mL
- neutralization IC50 [32]: 0.092 µg/mL
- neutralization IC80 [32]: 0.232 µg/mL
- neutralization IC50 [33]: 0.06 µg/mL
- neutralization IC80 [33]: 0.129 µg/mL
- neutralization IC50 [34]: 0.015 µg/mL
- neutralization IC80 [34]: 0.051 µg/mL
- IC50, titer in TZM.bl cells [35]: 0.018 µg/mL
- IC80, titer in TZM.bl cells [35]: 0.058 µg/mL
- neutralization IC50 [36]: 0.136 µg/mL
- neutralization IC80 [36]: 0.651 µg/mL
- IC50, titer in TZM.bl cells [37]: 0.105 µg/mL
- IC80, titer in TZM.bl cells [37]: 0.471 µg/mL

Substance: NIH 45-46 (antibody)
- neutralization IC50 [1]: > 30 µg/mL
- neutralization IC80 [1]: > 30 µg/mL
- IC50, titer in TZM.bl cells [2]: 0.08 µg/mL
- IC80, titer in TZM.bl cells [2]: 0.08 µg/mL
- IC50, titer in TZM.bl cells [3]: 0.1 µg/mL
- IC80, titer in TZM.bl cells [3]: 0.1 µg/mL
- IC50, titer in TZM.bl cells [4]: > 50 µg/mL
- IC80, titer in TZM.bl cells [4]: > 50 µg/mL
- neutralization IC50 [5]: 0.04 µg/mL
- neutralization IC80 [5]: 0.28 µg/mL
- neutralization IC50 [6]: 0.65 µg/mL
- neutralization IC80 [6]: 0.65 µg/mL
- neutralization IC50 [7]: 0.14 µg/mL
- neutralization IC80 [7]: 0.63 µg/mL
- IC50, titer in TZM.bl cells [8]: 0.01 µg/mL
- IC80, titer in TZM.bl cells [8]: 0.03 µg/mL
- neutralization IC50 [9]: 0.07 µg/mL
- neutralization IC80 [9]: 0.61 µg/mL
- IC50, titer in TZM.bl cells [10]: 5.26 µg/mL
- IC80, titer in TZM.bl cells [10]: 5.26 µg/mL
- neutralization IC50 [11]: 0.14 µg/mL
- neutralization IC80 [11]: 0.38 µg/mL
- neutralization IC50 [12]: 1.29 µg/mL
- neutralization IC80 [12]: 5.55 µg/mL
- IC50, titer in TZM.bl cells [13]: > 30 µg/mL
- IC80, titer in TZM.bl cells [13]: > 30 µg/mL
- neutralization IC50 [14]: 0.12 µg/mL
- neutralization IC80 [14]: 0.59 µg/mL
- IC50, titer in TZM.bl cells [15]: > 50 µg/mL
- IC80, titer in TZM.bl cells [15]: > 50 µg/mL
- IC50, titer in TZM.bl cells [16]: 0.03 µg/mL
- IC80, titer in TZM.bl cells [16]: 0.13 µg/mL
- neutralization IC50 [17]: 0.04 µg/mL
- neutralization IC80 [17]: 0.17 µg/mL
- neutralization IC50 [18]: 0.15 µg/mL
- neutralization IC80 [18]: 0.88 µg/mL
- neutralization IC50 [19]: 0.36 µg/mL
- neutralization IC80 [19]: 3.11 µg/mL
- IC50, titer in TZM.bl cells [20]: 0.03 µg/mL
- IC80, titer in TZM.bl cells [20]: 0.12 µg/mL
- neutralization IC50 [21]: 0.42 µg/mL
- neutralization IC80 [21]: 1.49 µg/mL
- neutralization IC50 [22]: 1.86 µg/mL
- neutralization IC80 [22]: 16.5 µg/mL
- IC50, titer in TZM.bl cells [23]: > 30 µg/mL
- IC80, titer in TZM.bl cells [23]: > 30 µg/mL
- IC50, titer in TZM.bl cells [24]: 0.06 µg/mL
- IC80, titer in TZM.bl cells [24]: 0.26 µg/mL
- IC50, titer in TZM.bl cells [25]: 0.07 µg/mL
- IC80, titer in TZM.bl cells [25]: > 50 µg/mL
- neutralization IC50 [26]: 0.01 µg/mL
- neutralization IC80 [26]: 0.04 µg/mL
- neutralization IC50 [27]: 0.05 µg/mL
- neutralization IC80 [27]: 0.31 µg/mL
- neutralization IC50 [28]: 0.03 µg/mL
- neutralization IC80 [28]: 0.12 µg/mL
- neutralization IC50 [29]: 7.53 µg/mL
- neutralization IC80 [29]: > 50 µg/mL
- neutralization IC50 [30]: 0.01 µg/mL
- neutralization IC80 [30]: 0.05 µg/mL
- neutralization IC50 [31]: 0.22 µg/mL
- neutralization IC80 [31]: 0.97 µg/mL
- neutralization IC50 [32]: 0.07 µg/mL
- neutralization IC80 [32]: 0.37 µg/mL
- neutralization IC50 [33]: 8.71 µg/mL
- neutralization IC80 [33]: 47 µg/mL
- neutralization IC50 [34]: 0.03 µg/mL
- neutralization IC80 [34]: 0.03 µg/mL
- IC50, titer in TZM.bl cells [35]: 0.01 µg/mL
- IC80, titer in TZM.bl cells [35]: 0.04 µg/mL
- neutralization IC50 [36]: 0.15 µg/mL
- neutralization IC80 [36]: 0.55 µg/mL
- IC50, titer in TZM.bl cells [37]: 1.11 µg/mL
- IC80, titer in TZM.bl cells [37]: 11.4 µg/mL
